The values that follow come from patent publication US20260365755 (published 2026).

Holding throughout (assay): BLI
In general terms: BLI is a label-free optical method that tracks binding on a fibre tip over time.

For test [1], the target named is T1, FcγRIIa (human, UniProt P12318).
T1 chain: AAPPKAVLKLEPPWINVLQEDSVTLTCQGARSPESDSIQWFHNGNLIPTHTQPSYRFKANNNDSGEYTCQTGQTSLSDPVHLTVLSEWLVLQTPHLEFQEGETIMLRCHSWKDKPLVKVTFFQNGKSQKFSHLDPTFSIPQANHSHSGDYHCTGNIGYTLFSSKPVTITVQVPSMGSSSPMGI

Test [2] has as its target FcγRIIIa (human, UniProt P08637).
Test [3] concerns the target FcRn (human, UniProt P55899).
Test [4] addresses C1q (human, UniProt P02745).

Chain of FcγRIIIa (P08637 17-208): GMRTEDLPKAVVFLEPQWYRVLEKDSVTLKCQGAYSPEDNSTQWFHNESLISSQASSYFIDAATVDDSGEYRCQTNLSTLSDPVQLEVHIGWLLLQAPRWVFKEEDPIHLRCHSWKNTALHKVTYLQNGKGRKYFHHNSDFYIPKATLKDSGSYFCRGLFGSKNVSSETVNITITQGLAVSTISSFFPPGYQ
Chain of C1q (P02745 23-245, chain 1 of 3): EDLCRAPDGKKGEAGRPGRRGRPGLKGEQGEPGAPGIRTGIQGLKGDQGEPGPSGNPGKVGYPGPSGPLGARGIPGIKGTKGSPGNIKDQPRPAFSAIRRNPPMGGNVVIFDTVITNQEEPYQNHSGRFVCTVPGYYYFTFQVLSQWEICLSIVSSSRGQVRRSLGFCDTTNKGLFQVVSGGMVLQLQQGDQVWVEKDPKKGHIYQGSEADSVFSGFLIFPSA
Chain of C1q (P02746 28-253, chain 2 of 3, further chain): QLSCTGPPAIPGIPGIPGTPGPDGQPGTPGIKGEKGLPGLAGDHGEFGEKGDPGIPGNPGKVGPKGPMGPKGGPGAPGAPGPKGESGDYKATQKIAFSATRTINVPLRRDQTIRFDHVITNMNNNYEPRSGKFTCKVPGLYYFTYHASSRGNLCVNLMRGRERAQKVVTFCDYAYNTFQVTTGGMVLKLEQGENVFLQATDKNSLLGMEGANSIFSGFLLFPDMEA
Chain of C1q (P02747 29-245, chain 3 of 3, further chain): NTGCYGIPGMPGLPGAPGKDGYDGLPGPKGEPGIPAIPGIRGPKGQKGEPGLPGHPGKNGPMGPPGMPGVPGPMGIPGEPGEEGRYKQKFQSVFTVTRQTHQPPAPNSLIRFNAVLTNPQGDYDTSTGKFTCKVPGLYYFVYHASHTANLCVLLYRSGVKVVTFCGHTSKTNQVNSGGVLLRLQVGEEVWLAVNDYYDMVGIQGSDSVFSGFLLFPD
Chain of FcRn (P55899 24-297, chain 1 of 2): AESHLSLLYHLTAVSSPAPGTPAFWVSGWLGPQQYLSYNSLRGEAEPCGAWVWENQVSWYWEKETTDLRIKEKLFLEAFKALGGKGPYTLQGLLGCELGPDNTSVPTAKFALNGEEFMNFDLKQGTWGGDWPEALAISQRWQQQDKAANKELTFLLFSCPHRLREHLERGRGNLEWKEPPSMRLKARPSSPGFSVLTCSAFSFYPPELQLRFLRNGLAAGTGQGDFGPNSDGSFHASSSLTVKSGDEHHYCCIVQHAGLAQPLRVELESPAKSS
Chain of FcRn (chain, as listed by the source, chain 2 of 2): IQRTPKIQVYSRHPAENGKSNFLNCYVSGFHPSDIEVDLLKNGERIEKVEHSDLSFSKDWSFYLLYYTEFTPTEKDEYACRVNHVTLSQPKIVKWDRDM

B1: Q-SBL-111 (antibody)
chain 1: not shown
chain 2: not shown
chain 3: EVQLVESGGGLVQPGGSLRLSCAASGYTFTNYGMNWVRQAPGKGLEWVGWINTYTGEPTYAADFKRRFTFSLDTSKSTAYLQMNSLRAEDTAVYYCAKYPHYYGSSHWYFDVWGQGTLVTVSSASTKGPSVFPLAPSSKSTSGGTAALGCLVKDYFPEPVTVSWNSGALTSGVHTFPAVLQSSGLYSLSSVVTVPSSSLGTQTYICNVNHKPSNTKVDKKVEPKSCDKTHTCPPCPAPELLGGPSVFLFPPKPKDTLMISRTPEVTCVVVDVSHEDPEVKFNWYVDGVEVHNAKTKPREEQYNSTYRVVSVLTVLHQDWLNGKEYKCKVSNKALPAPIEKTISKAKGQPREPQVCTLPPSRREMTKNQVSLWCLVKGFYPSDIAVEWESNGQPENNYKTTPPVLDSDGSFFLYSKLTVDKSRWQQGNVFSCSVMHEALHNHYTQKSLSLSPGK
chain 4: not shown
As a reminder, the Kd is the concentration at which binding is half-saturated. Higher therefore signals lower affinity. Regarding B1, the dissociation constant Kd in test [1] worked out at 2040 nM; in test [2] it was 490 nM; in test [3] it was 690 nM; in test [4], 30 nM.

B2: Q-SBL-117 (antibody)
chain 1: not shown
chain 2: not shown
chain 3: EVQLVESGGGLVQPGGSLRLSCAASGYTFTNYGMNWVRQAPGKGLEWVGWINTYTGEPTYAADFKRRFTFSLDTSKSTAYLQMNSLRAEDTAVYYCAKYPHYYGSSHWYFDVWGQGTLVTVSSASTKGPSVFPLAPSSKSTSGGTAALGCLVKDYFPEPVTVSWNSGALTSGVHTFPAVLQSSGLYSLSSVVTVPSSSLGTQTYICNVNHKPSNTKVDKKVEPKSCDKTHTCPPCPAPELLGGPSVFLFPPKPKDTLMISRTPEVTCVVVDVSHEDPEVKFNWYVDGVEVHNAKTKPREEQYNSTYRVVSVLTVLHQDWLNGKEYKCKVSNKALPAPIEKTISKAKGQPREPQVCTLPPSRKEMTKNQVSLWCLVKGFYPSDIAVEWESNGQPENNYKTTPPVLDSDGSFFLYSKLTVDKSRWQQGNVFSCSVMHEALHNHYTQKSLSLSPGK
chain 4: not shown
For the molecule B2, the Kd in test [1] came to 2550 nM; in test [2], 360 nM; in test [4] it was 40 nM.

B3: Q-SBL-114 (antibody)
chain 1: not shown
chain 2: not shown
chain 3: EVQLVESGGGLVQPGGSLRLSCAASGYTFTNYGMNWVRQAPGKGLEWVGWINTYTGEPTYAADFKRRFTFSLDTSKSTAYLQMNSLRAEDTAVYYCAKYPHYYGSSHWYFDVWGQGTLVTVSSASTKGPSVFPLAPSSKSTSGGTAALGCLVKDYFPEPVTVSWNSGALTSGVHTFPAVLQSSGLYSLSSVVTVPSSSLGTQTYICNVNHKPSNTKVDKKVEPKSCDKTHTCPPCPAPELLGGPSVFLFPPKPKDTLMISRTPEVTCVVVDVSHEDPEVKFNWYVDGVEVHNAKTKPREEQYNSTYRVVSVLTVLHQDWLNGKEYKCKVSNKALPAPIEKTISKAKGQPREPQVCTLPPSREEMTKNQVSLWCLVKGFYPSDIAVEWESNGQPENNYKTTPPVLHSDGSFFLYSKLTVDKSRWQQGNVFSCSVMHEALHNHYTQKSLSLSPGK
chain 4: not shown
Turning to B3, the equilibrium dissociation constant (Kd) in test [1] came to 1860 nM; in test [2], 230 nM; in test [4] it was 18 nM.

B4: Q-SBL-115 (antibody)
chain 1: not shown
chain 2: not shown
chain 3: EVQLVESGGGLVQPGGSLRLSCAASGYTFTNYGMNWVRQAPGKGLEWVGWINTYTGEPTYAADFKRRFTFSLDTSKSTAYLQMNSLRAEDTAVYYCAKYPHYYGSSHWYFDVWGQGTLVTVSSASTKGPSVFPLAPSSKSTSGGTAALGCLVKDYFPEPVTVSWNSGALTSGVHTFPAVLQSSGLYSLSSVVTVPSSSLGTQTYICNVNHKPSNTKVDKKVEPKSCDKTHTCPPCPAPELLGGPSVFLFPPKPKDTLMISRTPEVTCVVVDVSHEDPEVKFNWYVDGVEVHNAKTKPREEQYNSTYRVVSVLTVLHQDWLNGKEYKCKVSNKALPAPIEKTISKAKGQPREPQVCTLPPSRERMTKNQVSLWCLVKGFYPSDIAVEWESNGQPENNYKTTPPVLDSDGSFFLYSKLTVDKSRWQQGNVFSCSVMHEALHNHYTQKSLSLSPGK
chain 4: not shown
As to B4, the dissociation constant Kd in test [1] amounted to 1970 nM; in test [2], 290 nM; in test [3] it was 690 nM; in test [4], 18 nM.

B5: Q-SBL-136 (antibody)
chain 1: not shown
chain 2: not shown
chain 3: EVQLVESGGGLVQPGGSLRLSCAASGYTFTNYGMNWVRQAPGKGLEWVGWINTYTGEPTYAADFKRRFTFSLDTSKSTAYLQMNSLRAEDTAVYYCAKYPHYYGSSHWYFDVWGQGTLVTVSSASTKGPSVFPLAPSSKSTSGGTAALGCLVKDYFPEPVTVSWNSGALTSGVHTFPAVLQSSGLYSLSSVVTVPSSSLGTQTYICNVNHKPSNTKVDKKVEPKSCDKTHTCPPCPAPELLGGPSVFLFPPKPKDTLMISRTPEVTCVVVDVSHEDPEVKFNWYVDGVEVHNAKTKPREEQYNSTYRVVSVLTVLHQDWLNGKEYKCKVSNKALPAPIEKTISKAKGQPREPQVCTLPPSREEMTKNQVSLWCLVKGFYPSDIAVEWESNGQPENNYKTTPPVLDSDGSFFLYSTLTVDKSRWQQGNVFSCSVMHEALHNHYTQKSLSLSPGK
chain 4: not shown
In the case of B5, the Kd in test [1] worked out at 1970 nM; in test [2] it was 230 nM; in test [3], 620 nM.

B6: Q-SBL-103 (antibody)
chain 1: not shown
chain 2: not shown
chain 3: EVQLVESGGGLVQPGGSLRLSCAASGYTFTNYGMNWVRQAPGKGLEWVGWINTYTGEPTYAADFKRRFTFSLDTSKSTAYLQMNSLRAEDTAVYYCAKYPHYYGSSHWYFDVWGQGTLVTVSSASTKGPSVFPLAPSSKSTSGGTAALGCLVKDYFPEPVTVSWNSGALTSGVHTFPAVLQSSGLYSLSSVVTVPSSSLGTQTYICNVNHKPSNTKVDKKVEPKSCDKTHTCPPCPAPELLGGPSVFLFPPKPKDTLMISRTPEVTCVVVDVSHEDPEVKFNWYVDGVEVHNAKTKPREEQYNSTYRVVSVLTVLHQDWLNGKEYKCKVSNKALPAPIEKTISKAKGQPREPQVCTLPPSRERMTKNQVSLWCLVKGFYPSDIAVEWESNGQPENNYKTTPPVLDSDGSFFLYSKLTVDKSRWQQGNVFSCSVMHEALHNHYTQKSLSLSPGK
chain 4: not shown
Take B6: the Kd in test [1] came out at 1130 nM; in test [2], 220 nM; in test [4] it was 40 nM.

B7: Q-SBL-104 (antibody)
chain 1: not shown
chain 2: not shown
chain 3: EVQLVESGGGLVQPGGSLRLSCAASGYTFTNYGMNWVRQAPGKGLEWVGWINTYTGEPTYAADFKRRFTFSLDTSKSTAYLQMNSLRAEDTAVYYCAKYPHYYGSSHWYFDVWGQGTLVTVSSASTKGPSVFPLAPSSKSTSGGTAALGCLVKDYFPEPVTVSWNSGALTSGVHTFPAVLQSSGLYSLSSVVTVPSSSLGTQTYICNVNHKPSNTKVDKKVEPKSCDKTHTCPPCPAPELLGGPSVFLFPPKPKDTLMISRTPEVTCVVVDVSHEDPEVKFNWYVDGVEVHNAKTKPREEQYNSTYRVVSVLTVLHQDWLNGKEYKCKVSNKALPAPIEKTISKAKGQPREPQVCTLPPSRREMTKNQVSLWCLVKGFYPSDIAVEWESNGQPENNYKTTPPVLHSDGSFFLYSKLTVDKSRWQQGNVFSCSVMHEALHNHYTQKSLSLSPGK
chain 4: not shown
With B7, the results for the Kd in test [1] and in test [3] were 1870 nM and 680 nM, respectively.

B8: Q-SBL-105 (antibody)
chain 1: not shown
chain 2: not shown
chain 3: EVQLVESGGGLVQPGGSLRLSCAASGYTFTNYGMNWVRQAPGKGLEWVGWINTYTGEPTYAADFKRRFTFSLDTSKSTAYLQMNSLRAEDTAVYYCAKYPHYYGSSHWYFDVWGQGTLVTVSSASTKGPSVFPLAPSSKSTSGGTAALGCLVKDYFPEPVTVSWNSGALTSGVHTFPAVLQSSGLYSLSSVVTVPSSSLGTQTYICNVNHKPSNTKVDKKVEPKSCDKTHTCPPCPAPELLGGPSVFLFPPKPKDTLMISRTPEVTCVVVDVSHEDPEVKFNWYVDGVEVHNAKTKPREEQYNSTYRVVSVLTVLHQDWLNGKEYKCKVSNKALPAPIEKTISKAKGQPREPQVCTLPPSRRRMTKNQVSLWCLVKGFYPSDIAVEWESNGQPENNYKTTPPVLDSDGSFFLYSKLTVDKSRWQQGNVFSCSVMHEALHNHYTQKSLSLSPGK
chain 4: not shown
Turning to B8, the Kd in test [1] came out at 1910 nM; in test [2], 430 nM; in test [3], 710 nM.

B9: Q-SBL-101 (antibody)
chain 1: not shown
chain 2: not shown
chain 3: EVQLVESGGGLVQPGGSLRLSCAASGYTFTNYGMNWVRQAPGKGLEWVGWINTYTGEPTYAADFKRRFTFSLDTSKSTAYLQMNSLRAEDTAVYYCAKYPHYYGSSHWYFDVWGQGTLVTVSSASTKGPSVFPLAPSSKSTSGGTAALGCLVKDYFPEPVTVSWNSGALTSGVHTFPAVLQSSGLYSLSSVVTVPSSSLGTQTYICNVNHKPSNTKVDKKVEPKSCDKTHTCPPCPAPELLGGPSVFLFPPKPKDTLMISRTPEVTCVVVDVSHEDPEVKFNWYVDGVEVHNAKTKPREEQYNSTYRVVSVLTVLHQDWLNGKEYKCKVSNKALPAPIEKTISKAKGQPREPQVCTLPPSRREMTKNQVSLWCLVKGFYPSDIAVEWESNGQPENNYKTTPPVLDSDGSFFLYSKLTVDKSRWQQGNVFSCSVMHEALHNHYTQKSLSLSPGK
chain 4: not shown
For B9, the dissociation constant (Kd) in test [1] stood at 2460 nM; in test [2], 500 nM; in test [3], 730 nM; in test [4] it was 36 nM.

B10: Q-SBL-135 (antibody)
chain 1: not shown
chain 2: not shown
chain 3: EVQLVESGGGLVQPGGSLRLSCAASGYTFTNYGMNWVRQAPGKGLEWVGWINTYTGEPTYAADFKRRFTFSLDTSKSTAYLQMNSLRAEDTAVYYCAKYPHYYGSSHWYFDVWGQGTLVTVSSASTKGPSVFPLAPSSKSTSGGTAALGCLVKDYFPEPVTVSWNSGALTSGVHTFPAVLQSSGLYSLSSVVTVPSSSLGTQTYICNVNHKPSNTKVDKKVEPKSCDKTHTCPPCPAPELLGGPSVFLFPPKPKDTLMISRTPEVTCVVVDVSHEDPEVKFNWYVDGVEVHNAKTKPREEQYNSTYRVVSVLTVLHQDWLNGKEYKCKVSNKALPAPIEKTISKAKGQPREPQVCTLPPSREEMTKNQVSLWCLVKGFYPSDIAVEWESNGQPENNYKTTPPVLDSDGSFFLYSVLTVDKSRWQQGNVFSCSVMHEALHNHYTQKSLSLSPGK
chain 4: not shown
On to B10, for which the equilibrium dissociation constant (Kd) in test [1] turned out to be 1380 nM; in test [2], 300 nM; in test [3], 650 nM.

B11: Q-SBL-106 (antibody)
chain 1: not shown
chain 2: not shown
chain 3: EVQLVESGGGLVQPGGSLRLSCAASGYTFTNYGMNWVRQAPGKGLEWVGWINTYTGEPTYAADFKRRFTFSLDTSKSTAYLQMNSLRAEDTAVYYCAKYPHYYGSSHWYFDVWGQGTLVTVSSASTKGPSVFPLAPSSKSTSGGTAALGCLVKDYFPEPVTVSWNSGALTSGVHTFPAVLQSSGLYSLSSVVTVPSSSLGTQTYICNVNHKPSNTKVDKKVEPKSCDKTHTCPPCPAPELLGGPSVFLFPPKPKDTLMISRTPEVTCVVVDVSHEDPEVKFNWYVDGVEVHNAKTKPREEQYNSTYRVVSVLTVLHQDWLNGKEYKCKVSNKALPAPIEKTISKAKGQPREPQVCTLPPSRERMTKNQVSLWCLVKGFYPSDIAVEWESNGQPENNYKTTPPVLHSDGSFFLYSKLTVDKSRWQQGNVFSCSVMHEALHNHYTQKSLSLSPGK
chain 4: not shown
In test [3], B11 yielded a Kd of 680 nM.
